Patent US7276481B2, “Method and composition for treatment of skeletal dysplasias” (ProChon Biotech Ltd., priority 2001, dated 2007)

Molecular target: T1, natriuretic peptide receptor on C3H10T1/2 cells (Mus musculus, UniProt Q6VVW5)
T1 construct: endogenous in cells; host or cells: C3H10T1/2 cells
T1 sequence (Q6VVW5 23-1047 limits assumed): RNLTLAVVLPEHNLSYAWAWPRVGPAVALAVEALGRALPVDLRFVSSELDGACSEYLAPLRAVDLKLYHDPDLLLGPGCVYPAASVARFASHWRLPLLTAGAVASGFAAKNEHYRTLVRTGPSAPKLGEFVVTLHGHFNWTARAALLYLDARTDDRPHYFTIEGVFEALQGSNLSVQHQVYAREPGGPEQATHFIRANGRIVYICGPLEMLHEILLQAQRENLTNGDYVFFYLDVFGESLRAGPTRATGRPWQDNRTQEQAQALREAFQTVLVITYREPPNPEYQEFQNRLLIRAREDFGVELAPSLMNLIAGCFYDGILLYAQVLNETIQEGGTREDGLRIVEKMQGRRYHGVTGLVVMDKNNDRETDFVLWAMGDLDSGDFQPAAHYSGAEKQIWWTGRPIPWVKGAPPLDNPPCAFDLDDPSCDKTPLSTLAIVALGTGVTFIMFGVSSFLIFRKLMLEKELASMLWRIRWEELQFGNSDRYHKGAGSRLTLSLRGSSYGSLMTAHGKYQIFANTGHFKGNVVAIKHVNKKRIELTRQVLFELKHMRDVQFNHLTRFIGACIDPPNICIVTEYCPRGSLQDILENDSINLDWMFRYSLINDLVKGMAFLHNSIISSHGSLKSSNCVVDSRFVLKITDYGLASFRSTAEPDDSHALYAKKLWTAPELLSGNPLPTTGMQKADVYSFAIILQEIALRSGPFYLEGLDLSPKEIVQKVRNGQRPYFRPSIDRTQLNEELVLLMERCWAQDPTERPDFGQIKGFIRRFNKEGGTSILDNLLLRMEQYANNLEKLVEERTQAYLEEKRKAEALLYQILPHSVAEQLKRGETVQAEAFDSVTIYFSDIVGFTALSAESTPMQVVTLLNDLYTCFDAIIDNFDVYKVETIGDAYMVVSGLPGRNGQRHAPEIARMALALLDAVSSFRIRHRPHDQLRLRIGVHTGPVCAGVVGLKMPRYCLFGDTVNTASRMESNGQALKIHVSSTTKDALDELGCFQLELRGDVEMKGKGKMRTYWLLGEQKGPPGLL
Assay: Biotrak enzyme immunoassay of cGMP elicited on C3H10T1/2 cells
Type: cell-based
Settings: not given
Experimental: All peptide variants were analyzed for activity using the Biotrak enzyme immunoassay (EIA, Amersham) that measures the amount of secondary messenger, cyclic GMP (cGMP), elicited after activation of the natriuretic peptide receptor by the peptide on C3H10T1/2 cells. Amino acid substitutions are marked in bold and underlined. The assay was performed for CNP and variants at a concentration of 10^−6 M. The values are given as the percent of relative binding compared to CNP, where CNP 1-22 and CNP 5-22 yield 100% binding.

In the case of “C F G L K L D R I G S M S G L G C (CFGLKLDRIGSMSGLGC) [SEQ ID NO:2]”, the “activity in cGMP assay (in words)” value is reported as “active”.

Same assay, conditions: Table 2; cGMP assay, compared to CNP

Going from “C A G L K L D R I G S M S G L G C (CAGLKLDRIGSMSGLGC; peptide variant) [SEQ ID NO:6]” to “C F G L K L A R I G S M S G L G C (CFGLKLARIGSMSGLGC; peptide variant) [SEQ ID NO:7]”, the “cGMP response as percent of CNP” value rises from 43.8% to 49.1%.

Compared with “C F G L K L D A I G S M S G L G C (CFGLKLDAIGSMSGLGC; peptide variant) [SEQ ID NO:8]”, “C F G L K L D R A G S M S G L G C (CFGLKLDRAGSMSGLGC; peptide variant) [SEQ ID NO:9]” is lower in “cGMP response as percent of CNP” value: 18.4% for the first, 11.5% for the second.

First: C F G L K L D R I G - - - - - - C (CFGLKLDRIGC; peptide variant) [SEQ ID NO:22]
Second: C F G L K L D R I G A M - - - - C (CFGLKLDRIGAMC) [SEQ ID NO:17]
The “cGMP response as percent of CNP” value of the first is higher: 4.2% for the first, 3.4% for the second.

Going from “C F G L K L D R I G A Q - - - - C (CFGLKLDRIGAQC; peptide variant) [SEQ ID NO:19]” to “C F G L K L D R I G A Q S - - - C (CFGLKLDRIGAQSC; peptide variant) [SEQ ID NO:15]”, the “cGMP response as percent of CNP” value rises from 3.8% to 20.6%.

First: C F G L K L D R I G S - - - - - C (CFGLKLDRIGSC; peptide variant) [SEQ ID NO:21]
Second: C F G L K L D R I G S M - - - - C (CFGLKLDRIGSMC; peptide variant) [SEQ ID NO:16]
The “cGMP response as percent of CNP” value of the first is higher: 22.7% for the first, 17.3% for the second.

Going from “C F G L K L D R I G S M S - - - C (CFGLKLDRIGSMSC; peptide variant) [SEQ ID NO:14]” to “C F G L K L D R I G S M S G L G C (CFGLKLDRIGSMSGLGC) [SEQ ID NO:2]”, the “cGMP response as percent of CNP” value rises from 29.9% to 127.4%.

“C F G L K L D R I G S Q - - - - C (CFGLKLDRIGSQC; peptide variant) [SEQ ID NO:18]” was tested, and the “cGMP response as percent of CNP” value was 11.8%.

Same assay, conditions: Table 3; cGMP values at 10^-6 M, compared to CNP (CNP 1-22 and CNP 5-22 = 100%)

Compared with “C A G L K L A R I G S A S G L G C (CAGLKLARIGSASGLGC; peptide variant) [SEQ ID NO:27]”, “C A G L K L A R I G S M S G L G C (CAGLKLARIGSMSGLGC; peptide variant) [SEQ ID NO:24]” is higher in “cGMP response as percent of CNP” value: −10.355% for the first, −5.848% for the second.

Going from “C A G L K L D R I G S A S G L G C (CAGLKLDRIGSASGLGC; peptide variant) [SEQ ID NO:25]” to “C F G A K L D R I G S M S G L G C (CFGAKLDRIGSMSGLGC; peptide variant) [SEQ ID NO:40]”, the “cGMP response as percent of CNP” value rises from 3.933% to 20.154%.

Going from “C F G I K L D R I G S M S G L G C (CFGIKLDRIGSMSGLGC; peptide variant) [SEQ ID NO:41]” to “C F G L K A D R I G S M S G L G C (CFGLKADRIGSMSGLGC; peptide variant) [SEQ ID NO:45]”, the “cGMP response as percent of CNP” value falls from 47.395% to 11.259%.

Compared with “C F G L K I D R I G S M S G L G C (CFGLKIDRIGSMSGLGC; peptide variant) [SEQ ID NO:46]”, “C F G L K L A R I G S A S G L G C (CFGLKLARIGSASGLGC; peptide variant) [SEQ ID NO:26]” is lower in “cGMP response as percent of CNP” value: 88.117% for the first, 5.755% for the second.

Going from “C F G L K L D H I G S M S G L G C (CFGLKLDHIGSMSGLGC; peptide variant) [SEQ ID NO:48]” to “C F G L K L D K I G S M S G L G C (CFGLKLDKIGSMSGLGC; peptide variant) [SEQ ID NO:49]”, the “cGMP response as percent of CNP” value rises from 13.482% to 21.543%.

Compared with “C F G L K L D Q I G S M S G L G C (CFGLKLDQIGSMSGLGC; peptide variant) [SEQ ID NO:50]”, “C F G L K L D R I G A M S G L G C (CFGLKLDRIGAMSGLGC; peptide variant) [SEQ ID NO:54]” is higher in “cGMP response as percent of CNP” value: 11.953% for the first, 54.469% for the second.

Going from “C F G L K L D R I G G M S G L G C (CFGLKLDRIGGMSGLGC; peptide variant) [SEQ ID NO:55]” to “C F G L K L D R I G N M S G L G C (CFGLKLDRIGNMSGLGC; peptide variant) [SEQ ID NO:57]”, the “cGMP response as percent of CNP” value falls from 27.811% to 27.430%.

Compared with “C F G L K L D R I G S G S G L G C (CFGLKLDRIGSGSGLGC; peptide variant) [SEQ ID NO:69]”, “C F G L K L D R I G S H S G L G C (CFGLKLDRIGSHSGLGC; peptide variant) [SEQ ID NO:66]” is higher in “cGMP response as percent of CNP” value: 62.117% for the first, 66.222% for the second.

Going from “C F G L K L D R I G S K S G L G C (CFGLKLDRIGSKSGLGC; peptide variant) [SEQ ID NO:67]” to “C F G L K L D R I G S M S A L G C (CFGLKLDRIGSMSALGC; peptide variant) [SEQ ID NO:58]”, the “cGMP response as percent of CNP” value falls from 66.910% to 53.649%.

Compared with “C F G L K L D R I G S M S G A G C (CFGLKLDRIGSMSGAGC; peptide variant) [SEQ ID NO:63]”, “C F G L K L D R I G S M S G G G C (CFGLKLDRIGSMSGGGC; peptide variant) [SEQ ID NO:64]” is lower in “cGMP response as percent of CNP” value: −1.111% for the first, −10.145% for the second.

First: C F G L K L D R I G S M S G L G C (CFGLKLDRIGSMSGLGC) [SEQ ID NO:2]
Second: C F G L K L D R I G S M S G M G C (CFGLKLDRIGSMSGMGC; peptide variant) [SEQ ID NO:62]
The “cGMP response as percent of CNP” value of the first is higher: 100.000% for the first, 51.286% for the second.

Going from “C F G L K L D R I G S M S G Q G C (CFGLKLDRIGSMSGQGC; peptide variant) [SEQ ID NO:61]” to “C F G L K L D R I G S M S K L G C (CFGLKLDRIGSMSKLGC; peptide variant) [SEQ ID NO:60]”, the “cGMP response as percent of CNP” value rises from −3.474% to 49.202%.

Compared with “C F G L K L D R I G S M S L L G C (CFGLKLDRIGSMSLLGC; peptide variant) [SEQ ID NO:59]”, “C F G L K L D R I G S S S G L G C (CFGLKLDRIGSSSGLGC; peptide variant) [SEQ ID NO:68]” is higher in “cGMP response as percent of CNP” value: 15.289% for the first, 62.531% for the second.

Compared with “C F G L K L D R I G S W S G L G C (CFGLKLDRIGSWSGLGC; peptide variant) [SEQ ID NO:65]”, “C F G L K L D R I G T M S G L G C (CFGLKLDRIGTMSGLGC; peptide variant) [SEQ ID NO:56]” is higher in “cGMP response as percent of CNP” value: 66.450% for the first, 74.080% for the second.

Going from “C F G L K L D R L G S M S G L G C (CFGLKLDRLGSMSGLGC; peptide variant) [SEQ ID NO:51]” to “C F G L K L D R T G S M S G L G C (CFGLKLDRTGSMSGLGC; peptide variant) [SEQ ID NO:53]”, the “cGMP response as percent of CNP” value falls from 14.177% to −1.945%.

Compared with “C F G L K L D R V G S M S G L G C (CFGLKLDRVGSMSGLGC; peptide variant) [SEQ ID NO:52]”, “C F G L K L E R I G S M S G L G C (CFGLKLERIGSMSGLGC; peptide variant) [SEQ ID NO:35]” is lower in “cGMP response as percent of CNP” value: 27.103% for the first, 9.450% for the second.

First: C F G L K L I R I G S M S G L G C (CFGLKLIRIGSMSGLGC; peptide variant) [SEQ ID NO:38]
Second: C F G L K L M R I G S M S G L G C (CFGLKLMRIGSMSGLGC; peptide variant) [SEQ ID NO:39]
The “cGMP response as percent of CNP” value of the first is lower: 7.228% for the first, 7.784% for the second.

In the case of “C F G L K L N R I G S M S G L G C (CFGLKLNRIGSMSGLGC; peptide variant) [SEQ ID NO:37]”, the “cGMP response as percent of CNP” value is reported as 17.235%.

Same assay, conditions: Table 3; cGMP values at 10^-6 M, compared to CNP (CNP 1-22 and CNP 5-22 = 100%); listed as CNP 5-22

For “C F G L K L D R I G S M S G L G C (CFGLKLDRIGSMSGLGC) [SEQ ID NO:2]”, the “cGMP response as percent of CNP” value was 100%.

Same assay, conditions: listed as SEQ ID NO: 2

For “C F G L K L D R I G S M S G L G C (CFGLKLDRIGSMSGLGC) [SEQ ID NO:2]”, the “activity in cGMP assay (in words)” value was “as active as the native CNP1-22”.
